Assay results: US9618511B2, “Methods and compositions for treating alzheimer's disease” (Eleanore Bennett Charitable Trust #2, priority 2008, dated 2017)

What was measured:
[1] = target: T1, association between PDK1 and Akt1 (Mus musculus, UniProt Q9Z2A0); assay: PDK and Akt1 interaction assay (cell extracts, IP/western pull-down); assay type: binding, mouse (C2C12 myotubes); details: for association between Akt and PDK1 (co-immunoprecipitation): 5 μM, mixed cell extracts, 30 min at 30° C.
T1 construct: These were relatively enriched with endogenous PDK; expressed in transfected cells; host or cells: mouse C2C12 myotubes infected with Adv WT-Akt; control C2C12 extracts as source of endogenous PDK1
T1 sequence (Q9Z2A0 1-559): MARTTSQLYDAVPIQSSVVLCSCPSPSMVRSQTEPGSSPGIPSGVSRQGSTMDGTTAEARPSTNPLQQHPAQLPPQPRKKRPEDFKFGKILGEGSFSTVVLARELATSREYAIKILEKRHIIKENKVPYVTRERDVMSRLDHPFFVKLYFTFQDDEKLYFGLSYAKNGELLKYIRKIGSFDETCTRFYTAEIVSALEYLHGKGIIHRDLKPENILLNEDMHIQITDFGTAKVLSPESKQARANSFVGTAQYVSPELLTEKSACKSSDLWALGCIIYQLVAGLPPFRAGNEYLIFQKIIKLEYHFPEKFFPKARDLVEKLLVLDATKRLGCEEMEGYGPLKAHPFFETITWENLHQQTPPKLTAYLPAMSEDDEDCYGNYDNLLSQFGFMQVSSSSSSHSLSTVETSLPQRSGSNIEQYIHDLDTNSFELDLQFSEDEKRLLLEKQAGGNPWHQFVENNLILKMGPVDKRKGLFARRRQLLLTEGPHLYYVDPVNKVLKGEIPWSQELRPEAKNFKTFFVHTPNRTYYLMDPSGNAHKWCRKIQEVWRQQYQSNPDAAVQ
Description: Accordingly, the effect of Aβ on PDK/Akt interactions may be evaluated in any suitable in vitro assay. In some embodiments, PDK1 may be prepared from extracts of mouse C2C12 myotube cultures. To increase the amount of available Akt, this protein may be prepared from C2C12 myotubes that had previously been infected with an adenovirus expressing wild type Akt (Adv-wtAkt). In some embodiments, to measure the interaction between these proteins, the cell extracts above were mixed for 30 minutes at 30° C. either in the presence or absence of added 5 μM Aβ1-42. […] The inability of PDK1 to interact with its target Akt led to a decrease in Akt activation and a loss of the subsequent downstream phosphorylations (e.g., GSK3β peptide as in FIGS. 3A and 3C, not shown).
For cell-based interaction studies, intracellular Aβ42 production was induced by infecting C2C12 myotubes with Adv Aβ/TetOn. These cell extracts (100 μg) were used to IP endogenous Akt, and from this pull-down, determine the levels of associated PDK by western blot. The in vitro interaction study involved first enriching for Akt through viral-mediated expression of WT-Akt. Akt-enriched/PDK-depleted extract was then prepared by removing the PDK, via immunoprecipitation, from the Akt-enriched cell extract. Akt-depleted extracts were prepared from control extracts by pre-immunoprecipitating Akt. These were relatively enriched with endogenous PDK. The enrichments and depletions were confirmed by western blot analysis. The interaction assay contained a mixture of 100 μg Akt-enriched and 100 μg control cell extract in the presence or absence of Aβ42 (up to 10 μM). The mixtures were incubated for 30 minutes at 30° C., followed by overnight incubation at 4° C. with goat anti-Akt1. Protein G beads were added with mixing for 1.5 hr. PDK1 and Akt1 levels were determined by western blot. In control experiments, 100 μg of Akt-enriched, PDK-depleted extract and 100 μg of a control extract depleted for Akt were mixed in the presence or absence of Aβ42 (up to 5 μM) and subjected to the same analyses.

C2C12 myotubes = assay: Extracellular peptide or insulin treatment of C2C12 myotubes, western blot of Akt signaling; assay type: cell-based, mouse
Description: The prior cell-based and in vitro experiments are relevant to […] Aβ effects. To determine the specificity of Akt inhibition by […] Aβ, C2C12 myotubes were cultured, and treated with extracellular Aβ25-35, Aβ35-25, Aβ1-42 and Aβ42-1 for 24 hours. In the last 30 minutes before harvest, insulin was added (0.1 μg/ml). While p-Akt (Ser473) and p-GSK-3 α/β levels were increased by insulin treatment (FIG. 9C, lane 2 vs. 1), they were not affected by any of the Aβ treatments. […] There were also no significant changes in p-Akt (Ser473) levels (data not shown). […] PDK itself is subject to phosphorylation (e.g., at Ser 241) and several authors feel that it is constitutively phosphorylated and thus ‘primed’ (Casamayor, A., Morrice, N. A., and Alessi, D. R., 1999, Phosphorylation of Ser-241 is essential for the activity of 3-phosphoinositide-dependent protein kinase-1: identification of five sites of phosphorylation in vivo, Biochem J 342 (Pt 2):287-292). The experiments described herein indicate that p-PDK levels are constitutively high in C2C12 cells and not boosted further by insulin action (FIG. 9E, top). p-PDK levels were not modulated by extracellular (FIG. 9E lower panel) or intracellular Aβ expression (not shown).
In FIG. 9C C2C12 myotubes were bath exposed to AP25-35, reverse AP35-25, AP1-42 and reverse Aβ42-1 peptides for 24 hours before treatment with insulin (0.1 μg/ml, 15 min) Whole cell extracts were subjected to Western analysis for p-Akt (Ser473) (Akt activation) and total Akt levels (top) as well as for endogenous levels of pGSK-3a/p, indicative of Akt activity, and total GSK-3β (lower two blots). […] The increase was not affected by pre-treatment with extracellular AR.
In FIG. 9D C2C12 myotube cultures were exposed to increasing doses of A[i1-42 (0, 10 and 25 μM) for 2 hours before treatment with insulin (0, 20, 100 and 500 ng/ml) for 15 min Harvested cell extracts were used for western blot for p-Akt (Thr308).

Substance: Aβ42: synthetic 42 amino acid β-amyloid peptide, forward sequence, freshly prepared, predominantly monomeric (BioSource)
- association between Akt and PDK1 (co-immunoprecipitation) [1]: pulled-down less PDK
- association between Akt and PDK1 (co-immunoprecipitation) ([1]; listed as Aβ1-42): dramatic reduction
- pull-down of PDK1 with Akt1 ([1]; 10 μM, Akt-enriched plus control extracts): abrogated
- p-PDK (Ser241) levels (C2C12 myotubes; extracellular 1-100 nM, 2 or 24 hours, then insulin 500 ng/ml 30 min): remain unaffected
- p-Akt (Ser473) and p-GSK-3 α/β levels after insulin (C2C12 myotubes; extracellular peptide 24 hours, then insulin 0.1 μg/ml): not affected
- p-Akt (Thr308) levels, insulin dose response (C2C12 myotubes; extracellular, up to 25 μM in the media, insulin 20, 100, 500 ng/ml): did not affect
